Measured values reported in patent publication US20110098217A1 (INDIANA UNIVERSITY RESEARCH AND TECHNOLOGY, published 2011).
Where two headings read alike, the source gives them in different places. Bridge positions count the residues as written; N and C are the ends. Square brackets hold non-standard residues; d marks the D form. Side chains are listed from the residue outwards. Ends that are not written are not given here. Abu(4-SO3H) = N[C@@H](CCS(=O)(=O)O)C(=O)O; PhLac = O=C(O)[C@@H](O)Cc1ccccc1

How the values were obtained:
Receptor (human) = Receptor (human) (UniProt P47871); experiment: receptor binding competition
Receptor (human), sequence (P47871 26-477): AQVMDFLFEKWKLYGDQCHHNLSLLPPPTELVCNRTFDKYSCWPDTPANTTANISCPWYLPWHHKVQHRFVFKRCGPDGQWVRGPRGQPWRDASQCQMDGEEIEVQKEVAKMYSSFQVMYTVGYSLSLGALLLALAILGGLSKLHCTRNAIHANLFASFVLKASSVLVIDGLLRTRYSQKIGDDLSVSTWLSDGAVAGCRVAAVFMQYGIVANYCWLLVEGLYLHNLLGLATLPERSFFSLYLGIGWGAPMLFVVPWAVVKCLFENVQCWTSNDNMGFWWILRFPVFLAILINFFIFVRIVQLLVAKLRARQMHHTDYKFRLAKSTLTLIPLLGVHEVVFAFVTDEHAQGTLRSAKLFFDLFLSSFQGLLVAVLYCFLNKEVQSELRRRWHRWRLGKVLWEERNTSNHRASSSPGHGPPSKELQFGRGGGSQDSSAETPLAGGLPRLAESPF

human GLP-1 receptor [1] = biological target: T1, human GLP-1 receptor (human, UniProt P43220 24-463); experiment: cell-based or functional assay
human glucagon receptor [2] = biological target: T2, human glucagon receptor (human, UniProt P47871 26-477); experiment: cell-based or functional assay
T2 sequence (P47871 26-477): as above

human GLP-1 receptor [3] = biological target: T1, human GLP-1 receptor; experiment: cell-based or functional assay; remark: listed apart in the source
human glucagon receptor [4] = biological target: T2, human glucagon receptor; experiment: cell-based or functional assay; remark: listed apart in the source
human GLP-1 receptor [5] = biological target: T1, human GLP-1 receptor; experiment: cell-based or functional assay; remark: listed apart in the source
human glucagon receptor [6] = biological target: T2, human glucagon receptor; experiment: cell-based or functional assay; remark: listed apart in the source
human GLP-1 receptor [7] = biological target: T1, human GLP-1 receptor; experiment: cell-based or functional assay; remark: listed apart in the source
human glucagon receptor [8] = biological target: T2, human glucagon receptor; experiment: cell-based or functional assay; remark: listed apart in the source
human glucagon receptor [9] = biological target: T2, human glucagon receptor; experiment: cell-based or functional assay; remark: listed apart in the source
human glucagon receptor [10] = biological target: T2, human glucagon receptor; experiment: SPA competition vs 125I-glucagon, receptor membranes
human GLP-1 receptor [11] = biological target: T1, human GLP-1 receptor; experiment: cell-based or functional assay; remark: listed apart in the source
human glucagon receptor [12] = biological target: T2, human glucagon receptor; experiment: cell-based or functional assay; remark: listed apart in the source
human glucagon receptor [13] = biological target: T2, human glucagon receptor; experiment: cell-based or functional assay; remark: listed apart in the source
human glucagon receptor [14] = biological target: T2, human glucagon receptor; experiment: SPA competition vs 125I-glucagon, receptor membranes; remark: listed apart in the source

[2-Nal6, E9]G(6-29)-NH2
IC50 (Receptor (human)): 95.2 nM

[MCA6, E9]G(6-29)-NH2
IC50 (Receptor (human)): 114 nM

[Ac-F6, E9]G(6-29)-NH2
IC50 (Receptor (human)): 37.1 nM

[BMA6, E9]G(6-29)-NH2
IC50 (Receptor (human)): 80.6 nM

[3,4-2(F)-F6, E9]G(6-29)-NH2
IC50 (Receptor (human)): 36.7 nM

SQGT[PhLac]TSDYSKYLDERRAKDFVQWLMDT-NH2 (lactam 15-19; also: ester (depsipeptide) bond Thr5-PLA6) [[S2Q3-O-PLA6, D9, E16K20(Lactam), D28] G(2-29)]
GLP-1 agonism EC50 (human GLP-1 receptor [1]): 45.7 nM | Glucagon antagonism IC50 (inhibit 0.8 nM glucagon) (human glucagon receptor [2]): 3.14 nM | GLP-1 agonism EC50 (human GLP-1 receptor [3]): 112 nM | Glucagon antagonism IC50 (inhibit 0.8 nM glucagon) (human glucagon receptor [4]): 20.9 nM

[PhLac]TSDYSKYLDERRAQDFVEWLMKT-NH2 (lactam 19-23; not fully specified) [[PLA6, E16, E24K28(lactam)]G(6-29)]
GLP-1 agonism EC50 (human GLP-1 receptor [5]): 289 nM | Glucagon antagonism IC50 (inhibit 0.2-0.8 nM glucagon) (human glucagon receptor [6]): 22.4 nM | GLP-1 EC50 (human GLP-1 receptor [7]): 289 nM | Glucagon IC50 (human glucagon receptor [8]): 22 nM

[PhLac]TS[Abu(4-SO3H)]YSKYLDSRRAQDFVQWLMNT-NH2 [[PLA^6, hCys(SO3)^9]Glucagon(aa6-29)-NH2]
IC50 (cAMP, inhibit 0.2 nM Glucagon) (human glucagon receptor [9]): 40.2 nM | IC50 (human glucagon receptor [10]): 14.2 nM

B1: [PLA6, E16K20(lactam), E21, D28] G(6-29) (peptide)
peptide: [PhLac]TSDYSKYLDERRAKEFVQWLMDT-NH2
modifications: lactam 11-15; N-terminus assumed
SMILES: CSCC[C@H](NC(=O)[C@H](CC(C)C)NC(=O)[C@H](Cc1c[nH]c2ccccc12)NC(=O)[C@H](CCC(N)=O)NC(=O)[C@@H](NC(=O)[C@H](Cc1ccccc1)NC(=O)[C@H](CCC(=O)O)NC(=O)[C@@H]1CCCCNC(=O)CC[C@H](NC(=O)[C@H](CC(=O)O)NC(=O)[C@H](CC(C)C)NC(=O)[C@H](Cc2ccc(O)cc2)NC(=O)[C@H](CCCCN)NC(=O)[C@H](CO)NC(=O)[C@H](Cc2ccc(O)cc2)NC(=O)[C@H](CC(=O)O)NC(=O)[C@H](CO)NC(=O)[C@@H](NC(=O)[C@@H](O)Cc2ccccc2)[C@@H](C)O)C(=O)N[C@@H](CCCNC(=N)N)C(=O)N[C@@H](CCCNC(=N)N)C(=O)N[C@@H](C)C(=O)N1)C(C)C)C(=O)N[C@@H](CC(=O)O)C(=O)N[C@H](C(N)=O)[C@@H](C)O
GLP-1 agonism EC50 (human GLP-1 receptor [5]): 11.1 nM | Glucagon antagonism IC50 (inhibit 0.2-0.8 nM glucagon) (human glucagon receptor [6]): 8.6 nM

AEGT[PhLac]TSDYSKYLDERRAKDFVQWLMDT-NH2 (lactam 15-19; also: PLA6 linked to Thr5 by an ester bond (depsipeptide)) [[A2E3-O-PLA6, D9, E16K20(Lactam), D28] G(2-29)]
GLP-1 agonism EC50 (human GLP-1 receptor [1]): 14 nM | Glucagon antagonism IC50 (inhibit 0.8 nM glucagon) (human glucagon receptor [2]): 4.68 nM | GLP-1 agonism EC50 (human GLP-1 receptor [3]): 18 nM | Glucagon antagonism IC50 (inhibit 0.8 nM glucagon) (human glucagon receptor [4]): 21.8 nM

[PhLac]TSDK([Glu-C16 fatty acid])SKYLDERRAKDFVQWLMDT-NH2 [[PLA6, K10(EC16FA), E16, K20,D28]G(6-29)]
GLP-1 agonism EC50 (human GLP-1 receptor [11]): 105 nM | Glucagon antagonism IC50 (inhibit 0.4 nM glucagon) (human glucagon receptor [12]): 222 nM

HAEGT[PhLac]TSDYSKYLDERRAKDFVQWLMDT-NH2 (lactam 16-20; also: PLA6 linked to Thr5 by an ester bond (depsipeptide)) [[H1A2E3-O-PLA6, D9, E16K20(Lactam), D28] G(1-29)]
GLP-1 agonism EC50 (human GLP-1 receptor [1]): 6.2 nM | Glucagon antagonism IC50 (inhibit 0.8 nM glucagon) (human glucagon receptor [2]): 9.65 nM

SQGTFTSEYSKYLDERRAKDFVQWLMDT-NH2 (lactam 15-19) [[S2Q3, E9, E16K20(Lactam), D28] G(2-29)]
GLP-1 agonism EC50 (human GLP-1 receptor [3]): 284 nM | Glucagon antagonism IC50 (inhibit 0.8 nM glucagon) (human glucagon receptor [4]): 23.4 nM

B2: [PLA^6, D^9]Glucagon(aa6-29)-COOH (peptide)
peptide: [PhLac]TSDYSKYLDSRRAQDFVQWLMNT-OH
modifications: N-terminus assumed
SMILES: CSCC[C@H](NC(=O)[C@H](CC(C)C)NC(=O)[C@H](Cc1c[nH]c2ccccc12)NC(=O)[C@H](CCC(N)=O)NC(=O)[C@@H](NC(=O)[C@H](Cc1ccccc1)NC(=O)[C@H](CC(=O)O)NC(=O)[C@H](CCC(N)=O)NC(=O)[C@H](C)NC(=O)[C@H](CCCNC(=N)N)NC(=O)[C@H](CCCNC(=N)N)NC(=O)[C@H](CO)NC(=O)[C@H](CC(=O)O)NC(=O)[C@H](CC(C)C)NC(=O)[C@H](Cc1ccc(O)cc1)NC(=O)[C@H](CCCCN)NC(=O)[C@H](CO)NC(=O)[C@H](Cc1ccc(O)cc1)NC(=O)[C@H](CC(=O)O)NC(=O)[C@H](CO)NC(=O)[C@@H](NC(=O)[C@@H](O)Cc1ccccc1)[C@@H](C)O)C(C)C)C(=O)N[C@@H](CC(N)=O)C(=O)N[C@H](C(=O)O)[C@@H](C)O
IC50 (cAMP, inhibit 0.1 nM Glucagon) (human glucagon receptor [9]): 13.2 nM | IC50 (human glucagon receptor [10]): 15.5 nM

B3: [PLA^6, D^9]Glucagon(aa6-29)-NH2 (peptide)
peptide: [PhLac]TSDYSKYLDSRRAQDFVQWLMNT-NH2
modifications: N-terminus assumed
SMILES: CSCC[C@H](NC(=O)[C@H](CC(C)C)NC(=O)[C@H](Cc1c[nH]c2ccccc12)NC(=O)[C@H](CCC(N)=O)NC(=O)[C@@H](NC(=O)[C@H](Cc1ccccc1)NC(=O)[C@H](CC(=O)O)NC(=O)[C@H](CCC(N)=O)NC(=O)[C@H](C)NC(=O)[C@H](CCCNC(=N)N)NC(=O)[C@H](CCCNC(=N)N)NC(=O)[C@H](CO)NC(=O)[C@H](CC(=O)O)NC(=O)[C@H](CC(C)C)NC(=O)[C@H](Cc1ccc(O)cc1)NC(=O)[C@H](CCCCN)NC(=O)[C@H](CO)NC(=O)[C@H](Cc1ccc(O)cc1)NC(=O)[C@H](CC(=O)O)NC(=O)[C@H](CO)NC(=O)[C@@H](NC(=O)[C@@H](O)Cc1ccccc1)[C@@H](C)O)C(C)C)C(=O)N[C@@H](CC(N)=O)C(=O)N[C@H](C(N)=O)[C@@H](C)O
IC50 (cAMP, inhibit 0.1 nM Glucagon) (human glucagon receptor [9]): 6.9 nM | IC50 (human glucagon receptor [10]): 13.8 nM

SQGTTSDYSKYLDSRRAQDFVQWLMNT-NH2 (His1 and Phe6 deleted; also called Cmpd) [[desHis^1, desPhe^6] Glucagon-NH2]
cAMP Induction EC50 (human glucagon receptor [13]): 1180 nM | IC50 (human glucagon receptor [14]): 130 nM

SQGTFTSEYSKYLDSRRAQDFVQFLLNT-NH2 [[desHis^1, Glu^9, Phe^25, Leu^27]Glucagon-NH2]
cAMP Induction EC50 (human glucagon receptor [13]): 81 nM | IC50 (human glucagon receptor [14]): 12.6 nM

SQLTFTSEYSKYLDSRRAQDFVQWLMNT-NH2 (also called Cmpd) [[desHis^1, Leu^4, Glu^9] Glucagon-NH2]
cAMP Induction EC50 (human glucagon receptor [13]): 318 nM | cAMP Inhibition IC50 (human glucagon receptor [13]): 102 nM | IC50 (human glucagon receptor [14]): 36.9 nM

[PhLac]TSEYSKYLDSRRAQDFVQWLMNT-NH2 (lactam 4-7) [[PLA6, E9K12(Lactam)] G(6-29)]
GLP-1 agonism EC50 (human GLP-1 receptor [3]): 144 nM | Glucagon antagonism IC50 (inhibit 0.8 nM glucagon) (human glucagon receptor [4]): 72.5 nM

B4: [PLA6, E16, K20E24(lactam), D28]G(6-29) (peptide)
peptide: [PhLac]TSDYSKYLDERRAKDFVEWLMDT-NH2
modifications: lactam 15-19; N-terminus assumed
SMILES: CSCC[C@H](NC(=O)[C@H](CC(C)C)NC(=O)[C@H](Cc1c[nH]c2ccccc12)NC(=O)[C@@H]1CCC(=O)NCCCC[C@H](NC(=O)[C@H](C)NC(=O)[C@H](CCCNC(=N)N)NC(=O)[C@H](CCCNC(=N)N)NC(=O)[C@H](CCC(=O)O)NC(=O)[C@H](CC(=O)O)NC(=O)[C@H](CC(C)C)NC(=O)[C@H](Cc2ccc(O)cc2)NC(=O)[C@H](CCCCN)NC(=O)[C@H](CO)NC(=O)[C@H](Cc2ccc(O)cc2)NC(=O)[C@H](CC(=O)O)NC(=O)[C@H](CO)NC(=O)[C@@H](NC(=O)[C@@H](O)Cc2ccccc2)[C@@H](C)O)C(=O)N[C@@H](CC(=O)O)C(=O)N[C@@H](Cc2ccccc2)C(=O)N[C@@H](C(C)C)C(=O)N1)C(=O)N[C@@H](CC(=O)O)C(=O)N[C@H](C(N)=O)[C@@H](C)O
GLP-1 agonism EC50 (human GLP-1 receptor [5]): 240 nM | Glucagon antagonism IC50 (inhibit 0.2-0.8 nM glucagon) (human glucagon receptor [6]): 74.4 nM | GLP-1 EC50 (human GLP-1 receptor [7]): 239 nM | Glucagon IC50 (human glucagon receptor [8]): 74 nM

B5: [PLA^6, E^9]Glucagon (aa6-29 + CEX)-NH2 (peptide)
peptide: [PhLac]TSEYSKYLDSRRAQDFVQWLMNTGPSSGAPPPS-NH2
modifications: N-terminus assumed
SMILES: CSCC[C@H](NC(=O)[C@H](CC(C)C)NC(=O)[C@H](Cc1c[nH]c2ccccc12)NC(=O)[C@H](CCC(N)=O)NC(=O)[C@@H](NC(=O)[C@H](Cc1ccccc1)NC(=O)[C@H](CC(=O)O)NC(=O)[C@H](CCC(N)=O)NC(=O)[C@H](C)NC(=O)[C@H](CCCNC(=N)N)NC(=O)[C@H](CCCNC(=N)N)NC(=O)[C@H](CO)NC(=O)[C@H](CC(=O)O)NC(=O)[C@H](CC(C)C)NC(=O)[C@H](Cc1ccc(O)cc1)NC(=O)[C@H](CCCCN)NC(=O)[C@H](CO)NC(=O)[C@H](Cc1ccc(O)cc1)NC(=O)[C@H](CCC(=O)O)NC(=O)[C@H](CO)NC(=O)[C@@H](NC(=O)[C@@H](O)Cc1ccccc1)[C@@H](C)O)C(C)C)C(=O)N[C@@H](CC(N)=O)C(=O)N[C@H](C(=O)NCC(=O)N1CCC[C@H]1C(=O)N[C@@H](CO)C(=O)N[C@@H](CO)C(=O)NCC(=O)N[C@@H](C)C(=O)N1CCC[C@H]1C(=O)N1CCC[C@H]1C(=O)N1CCC[C@H]1C(=O)N[C@@H](CO)C(N)=O)[C@@H](C)O
IC50 (cAMP, inhibit 0.1 nM Glucagon) (human glucagon receptor [9]): 24.8 nM | IC50 (human glucagon receptor [10]): 40.3 nM
